# Experimental data as given in paper PMC6168691, “The amino‐terminal domain of Mycobacterium tuberculosis ClpB protein plays a crucial role in its substrate disaggregation activity” (FEBS Open Bio, 2018).
# Where “and” joins values, the source holds several entries; their conditions need not be identical. Identical values can stand only once.
# Tests used:
# FITC-labelled casein = assay: fluorescence polarisation
# [1] = molecular target: N-terminally truncated Mycobacterium tuberculosis ClpB (ClpB∆N, residues 149–848) (Mycobacterium tuberculosis H37Rv) (UniProt P9WPD1); assay: SEC; Superdex-200, buffer A; protein 0.2 mg/mL incubated with 5 mM ATP for 10 min at room temperature before loading
# [2] = molecular target: recombinant firefly luciferase (firefly) [luciferase: P08659]
# Sequence of recombinant firefly luciferase (firefly) [luciferase: P08659] (P08659 whole entry, the tested form may be a part): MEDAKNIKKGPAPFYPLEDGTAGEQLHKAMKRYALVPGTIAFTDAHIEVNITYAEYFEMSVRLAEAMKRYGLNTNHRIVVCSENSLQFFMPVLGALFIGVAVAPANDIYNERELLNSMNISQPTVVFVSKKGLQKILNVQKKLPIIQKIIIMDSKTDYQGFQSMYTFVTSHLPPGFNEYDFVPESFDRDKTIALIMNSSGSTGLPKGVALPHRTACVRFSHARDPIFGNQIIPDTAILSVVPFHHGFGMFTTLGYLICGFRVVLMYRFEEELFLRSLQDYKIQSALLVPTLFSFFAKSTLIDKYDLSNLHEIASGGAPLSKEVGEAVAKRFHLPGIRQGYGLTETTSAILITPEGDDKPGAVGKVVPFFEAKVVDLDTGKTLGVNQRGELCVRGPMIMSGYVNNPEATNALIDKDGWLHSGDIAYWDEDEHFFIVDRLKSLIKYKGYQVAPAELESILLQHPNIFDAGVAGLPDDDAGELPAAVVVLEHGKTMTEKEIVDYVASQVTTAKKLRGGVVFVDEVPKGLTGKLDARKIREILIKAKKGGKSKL
# [3] = molecular target: KJE chaperone complex (DnaK, DnaJ1, GrpE of Mycobacterium tuberculosis) (Mycobacterium tuberculosis | Mycobacterium tuberculosis H37Rv) (UniProt P9WMJ9)
# [4] = molecular target: malate dehydrogenase from pig heart (pig) (UniProt P00346)
# Sequence of malate dehydrogenase from pig heart (pig) (P00346 25-338): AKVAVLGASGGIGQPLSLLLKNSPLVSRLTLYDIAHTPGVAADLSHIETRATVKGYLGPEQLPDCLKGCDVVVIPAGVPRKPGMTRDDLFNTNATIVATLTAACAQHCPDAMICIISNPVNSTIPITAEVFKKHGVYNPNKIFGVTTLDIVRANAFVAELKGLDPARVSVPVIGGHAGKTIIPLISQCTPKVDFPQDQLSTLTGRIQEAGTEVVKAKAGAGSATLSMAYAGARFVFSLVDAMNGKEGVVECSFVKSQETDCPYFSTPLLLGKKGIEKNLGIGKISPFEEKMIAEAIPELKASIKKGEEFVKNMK
# [5] = molecular target: malate dehydrogenase from pig heart (pig) (UniProt P00346); remark: listed apart in the source
# [6] = molecular target: Mycobacterium tuberculosis DnaK (Mycobacterium tuberculosis) (UniProt P9WMJ9)
# [7] = molecular target: recombinant firefly luciferase (firefly) [luciferase: P08659]; remark: listed apart in the source
# [8] = molecular target: N-terminally truncated Mycobacterium tuberculosis ClpB (ClpB∆N, residues 149–848) (Mycobacterium tuberculosis H37Rv) (UniProt P9WPD1); assay: SEC; Superdex-200 (1 × 60 cm), buffer A; protein loaded at 6 mg/mL, no nucleotide
# [9] = molecular target: N-terminally truncated Mycobacterium tuberculosis ClpB (ClpB∆N, residues 149–848) (Mycobacterium tuberculosis H37Rv) (UniProt P9WPD1); assay: SEC; Superdex-200 (1 × 60 cm), buffer A (50 mM Tris/HCl pH 7.5, 100 mM KCl, 10% glycerol, 1 mM EDTA, 1 mM DTT); protein loaded at 0.2 mg/mL, no nucleotide
# [10] = molecular target: T1, Mycobacterium tuberculosis ClpB, full length (residues 1–848) (Mycobacterium tuberculosis H37Rv, UniProt P9WPD1 1-848); assay: fluorescence polarisation; conditions: both partners purified
# T1 construct: also called Mtb ClpB; WT ClpB
# [11] = molecular target: T1, Mycobacterium tuberculosis ClpB, full …; assay: fluorescence polarisation; conditions: both partners purified; remark: listed apart in the source
molecule,measurement,setting,value
Mycobacterium tuberculosis ClpB V141K (from UniProt P9WPD1 1-848) (natural protein),Kd,FITC-labelled casein,10 µM
"N-terminally truncated Mycobacterium tuberculosis ClpB (ClpB∆N, residues 149–848) (from UniProt P9WPD1 149-848) (domain or fragment)",stoichiometry N,[1],6
same,prevention of heat aggregation of luciferase by the highest concentration of ClpB∆N in the absence of ATP,[2],24%
same,"reactivation of small aggregates of MDH by 1 μM ClpB∆N with 1 μM KJE complex (about 25% by ClpB∆N alone, 3.6% by KJE alone)",[3],32%
same,"reactivation of small aggregates of MDH by 1 μM ClpB∆N alone, percent of native MDH activity",[4],25%
same,Kd,FITC-labelled casein,6.94 µM
same,drop of reactivation activity of ClpB∆N alone on large against small aggregates of MDH,[5],80%
same,drop of reactivation activity of ClpB∆N with KJE on large against small aggregates of MDH,[5],48%
same,ATPase activity of ClpB∆N left at 1 mM ADP (5 mM ATP) with 1 μM DnaK,[6],17%
same,"reactivation of large aggregates of luciferase by ClpB∆N against ClpB, alone and with KJE (luminescence)",[7],> 20%
same,stoichiometry N,[8],6 and 4
same,stoichiometry N,[9],6 and 2
Mycobacterium tuberculosis ClpB L97D (from UniProt P9WPD1 1-848) (natural protein),Kd,FITC-labelled casein,10 µM
Mycobacterium tuberculosis ClpB L101Q (from UniProt P9WPD1 1-848) (natural protein),Kd,FITC-labelled casein,5.3 µM
Mycobacterium tuberculosis ClpB F140T (from UniProt P9WPD1 1-848) (natural protein),Kd,FITC-labelled casein,24 µM
"FITC-labelled casein (natural protein, FITC label) RPKHPIKHQGLPQEVLNENLLRFFVAPFPEVFGKEKVNELSKDIGSESTEDQAMEDIKQMEAESISSSEEIVPNSVEQKHIQKEDVPSERYLGYLEQLLRLKKYKVPQLEIVPNSAEERLHSMKEGIHAQQKEPMIGVNQELAYFYPELFRQFYQLDAYPSGAWYYVPLGTQYTDAPSFSDIPNPIGSENSEKTTMPLW",Kd,[10],0.88 ± 0.47 µM
same,Kd,[11],0.9 µM
